Experiment [1] has as its target T1, human LIV-1 (human, UniProt Q13433 29-755).
T1 sequence (looked up): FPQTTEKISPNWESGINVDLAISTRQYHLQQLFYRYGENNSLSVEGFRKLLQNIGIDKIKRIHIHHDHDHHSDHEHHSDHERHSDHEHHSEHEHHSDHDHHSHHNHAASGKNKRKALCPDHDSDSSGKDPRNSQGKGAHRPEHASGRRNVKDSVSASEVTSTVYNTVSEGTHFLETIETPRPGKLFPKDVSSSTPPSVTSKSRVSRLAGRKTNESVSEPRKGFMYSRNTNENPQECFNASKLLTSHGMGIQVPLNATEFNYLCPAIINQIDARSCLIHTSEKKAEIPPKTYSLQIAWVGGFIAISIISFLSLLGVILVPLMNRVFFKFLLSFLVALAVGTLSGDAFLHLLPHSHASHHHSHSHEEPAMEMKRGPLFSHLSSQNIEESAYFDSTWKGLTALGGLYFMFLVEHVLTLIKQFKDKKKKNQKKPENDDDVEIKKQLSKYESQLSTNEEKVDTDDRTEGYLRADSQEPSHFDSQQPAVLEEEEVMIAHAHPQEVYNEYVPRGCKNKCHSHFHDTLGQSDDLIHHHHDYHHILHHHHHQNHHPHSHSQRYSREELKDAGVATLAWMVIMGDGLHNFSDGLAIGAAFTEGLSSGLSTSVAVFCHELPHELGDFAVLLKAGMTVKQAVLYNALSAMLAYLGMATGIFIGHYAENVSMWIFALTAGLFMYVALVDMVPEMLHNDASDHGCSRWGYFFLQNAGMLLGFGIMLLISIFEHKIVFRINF
Briefly: cell-based or functional assay.

The target of experiment [2] is T1, human LIV-1. Briefly: FACS, HEK293/H_LIV-1 cells. Here is the method:
In this example, cell based binding of humanized antibodies (hu Abs) on human LIV-1-expressing cells were assessed using flow cytometry.
Cell based binding of hu-Abs on human LIV-1 expressing cells were assessed using flow cytometry. Briefly, the HEK293/H_LIV-1 cells were incubated with hu-Abs (from 100 nM, 6 folds dilution, 8 points). After incubation at 4° C. for 60 minutes, the cells were washed with FACS buffer twice, then stained with fluorescent conjugated secondary antibody at 4° C. for 30 minutes. After that the cells were washed twice and analyzed by flow cytometry.

Experiment [3] concerns the target T1, human LIV-1. Briefly: FACS, HEK293/H_LIV-1 cells. As for the experimental part:
(§1) Cell based binding of ADC and naked of ADC on human LIV-1 expressing cells were assessed using flow cytometry. Briefly, HEK293/H_LIV-1, both low- and high-expressing H-LIV1-positive cell lines were incubated with ADC and naked of ADC (from 100 nM, 6 folds dilution, 8 points), respectively. After incubation at 4° C. for 60 minutes, the cells were washed with FACS buffer twice, then stained with fluorescent conjugated secondary antibody at 4° C. for 30 minutes. After that the cells were washed twice and analyzed by flow cytometry.
The source holds these as a separate data set. For orientation: In flow cytometry, cells or beads pass a laser one at a time.

The target in experiment [4] is T2, rat LIV-1 (rat, UniProt Q4V887 21-741).
T2 construct: whole, on cells
T2 sequence (looked up): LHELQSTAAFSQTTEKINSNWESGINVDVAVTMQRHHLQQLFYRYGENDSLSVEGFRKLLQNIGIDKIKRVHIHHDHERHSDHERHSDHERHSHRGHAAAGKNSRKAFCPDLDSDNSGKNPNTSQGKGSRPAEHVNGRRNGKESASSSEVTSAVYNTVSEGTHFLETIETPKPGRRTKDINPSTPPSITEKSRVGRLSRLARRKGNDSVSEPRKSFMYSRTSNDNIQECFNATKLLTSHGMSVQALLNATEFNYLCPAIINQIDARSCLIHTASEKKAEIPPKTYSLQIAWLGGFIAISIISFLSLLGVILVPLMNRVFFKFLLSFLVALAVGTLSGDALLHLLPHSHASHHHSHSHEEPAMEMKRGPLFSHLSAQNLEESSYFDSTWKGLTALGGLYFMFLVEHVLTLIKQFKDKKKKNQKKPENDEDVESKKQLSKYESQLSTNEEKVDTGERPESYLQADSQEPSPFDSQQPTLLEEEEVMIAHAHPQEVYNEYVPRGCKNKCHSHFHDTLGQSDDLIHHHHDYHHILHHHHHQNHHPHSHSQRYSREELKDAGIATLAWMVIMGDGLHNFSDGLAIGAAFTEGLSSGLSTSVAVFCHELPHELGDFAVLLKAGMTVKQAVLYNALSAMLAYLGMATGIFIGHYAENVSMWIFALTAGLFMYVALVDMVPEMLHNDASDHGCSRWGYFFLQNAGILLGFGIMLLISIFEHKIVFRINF
Briefly: FACS, HEK293/Rat_LIV-1 cells. As for the experimental part: (§2) Humanized antibodies 5D6B10.z7, 124H4D11.p2.z4 and 290F10G10.p1.z2 were selected for further testing. In this example, FACS cross binding of these selected antibodies to LIV-1 of different species were assessed using flow cytometry.
(§3) Cell based binding of optimal leads to different species LIV-1 expressing cells were assessed using flow cytometry. Briefly, the cells were incubated with optimal leads (from 100 nM, 6 folds dilution, 8 points). After incubation at 4° C. for 60 minutes, the cells were washed with 2% FBS/PBS buffer twice, then stained with fluorescent conjugated secondary antibody at 4° C. for 30 minutes. After that the cells were washed twice and resuspended in 80 μL of 2% FBS/PBS buffer. Fluorescent signal of binding was detected using Agilent. The EC50 was calculated using the GraphPad Software (LaJolla, CA).

In experiment [5] the target is rhesus LIV-1 (rhesus, UniProt H9FSJ2 30-735). Briefly: FACS, HEK293/Rhe_LIV-1 cells. Here is the method:
as §2, §3

Experiment [6] deals with T1, human LIV-1. Briefly: FACS, BT20/H_LIV-1 Low cells. As for the experimental part: as §1
Experiment [7] has as its target T3, cynomolgus LIV-1 (cynomolgus, UniProt A0A2K5WH46 30-741). The experiment is described as follows: FACS, HEK293/Cyno_LIV-1 cells.
Target sequence in this assay (A0A2K5WH46 entry or part of it): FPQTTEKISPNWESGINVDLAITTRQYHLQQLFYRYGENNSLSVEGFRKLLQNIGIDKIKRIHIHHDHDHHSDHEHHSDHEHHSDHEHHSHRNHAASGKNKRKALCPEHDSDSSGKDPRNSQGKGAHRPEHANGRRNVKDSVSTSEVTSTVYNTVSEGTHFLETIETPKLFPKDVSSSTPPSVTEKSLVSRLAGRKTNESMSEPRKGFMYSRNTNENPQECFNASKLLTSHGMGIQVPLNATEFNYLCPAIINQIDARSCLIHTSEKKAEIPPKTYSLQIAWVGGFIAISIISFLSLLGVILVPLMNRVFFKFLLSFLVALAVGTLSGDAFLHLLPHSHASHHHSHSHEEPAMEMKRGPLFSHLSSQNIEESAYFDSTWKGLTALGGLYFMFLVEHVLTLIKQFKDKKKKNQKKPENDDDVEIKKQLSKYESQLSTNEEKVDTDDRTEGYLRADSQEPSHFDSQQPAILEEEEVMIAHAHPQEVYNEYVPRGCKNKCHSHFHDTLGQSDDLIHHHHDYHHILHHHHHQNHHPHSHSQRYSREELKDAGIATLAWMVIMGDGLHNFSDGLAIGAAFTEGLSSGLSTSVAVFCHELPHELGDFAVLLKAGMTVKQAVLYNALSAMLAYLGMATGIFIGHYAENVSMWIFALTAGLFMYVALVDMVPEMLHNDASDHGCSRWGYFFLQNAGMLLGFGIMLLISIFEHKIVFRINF
For experiment [8], the target named is T3, cynomolgus LIV-1. Briefly: FACS, HEK293/Cyno_LIV-1 cells. Here is the method:
as §3
The source holds these as a separate data set.
Target sequence in this assay (A0A2K5WH46 entry or part of it): as above

In experiment [9] the target is T1, human LIV-1. Briefly: FACS, BT20/H_LIV-1 High cells. Here is the method: as §1
The target in experiment [10] is T4, mouse LIV-1 (mouse, UniProt Q8C145 21-765).
T4 construct: whole, on cells
T4 sequence (looked up): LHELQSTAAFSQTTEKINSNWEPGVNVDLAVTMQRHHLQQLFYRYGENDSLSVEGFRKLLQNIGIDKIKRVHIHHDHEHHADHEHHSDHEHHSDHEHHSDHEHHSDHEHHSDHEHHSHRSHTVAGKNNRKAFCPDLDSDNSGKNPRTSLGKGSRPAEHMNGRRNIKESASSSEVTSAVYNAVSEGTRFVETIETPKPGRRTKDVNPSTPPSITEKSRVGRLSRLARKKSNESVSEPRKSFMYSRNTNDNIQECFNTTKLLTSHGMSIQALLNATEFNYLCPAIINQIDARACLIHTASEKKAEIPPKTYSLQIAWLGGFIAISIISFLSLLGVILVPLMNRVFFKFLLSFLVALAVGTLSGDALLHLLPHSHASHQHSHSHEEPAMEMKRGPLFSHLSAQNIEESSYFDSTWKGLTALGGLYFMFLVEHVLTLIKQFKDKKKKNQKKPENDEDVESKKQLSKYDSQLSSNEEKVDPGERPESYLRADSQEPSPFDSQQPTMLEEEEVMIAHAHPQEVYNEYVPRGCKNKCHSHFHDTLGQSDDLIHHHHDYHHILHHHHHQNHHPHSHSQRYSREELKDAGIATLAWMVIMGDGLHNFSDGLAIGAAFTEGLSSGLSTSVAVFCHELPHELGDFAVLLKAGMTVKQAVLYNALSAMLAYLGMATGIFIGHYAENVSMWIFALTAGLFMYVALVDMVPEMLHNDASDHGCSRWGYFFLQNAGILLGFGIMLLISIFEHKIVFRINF
The experiment is described as follows: FACS, HEK293/Mouse_LIV-1 cells. As for the experimental part:
as §2, §3

The target in experiment [11] is T1, human LIV-1. The experiment is described as follows: cell-based or functional assay. The source holds these as a separate data set.
For experiment [12], the target named is T1, human LIV-1. The experiment is described as follows: cell-based or functional assay. The source holds these as a separate data set.
Experiment [13] deals with T1, human LIV-1. The experiment is described as follows: cell-based or functional assay. The source holds these as a separate data set.
For experiment [14], the target named is T1, human LIV-1. The experiment is described as follows: FACS, HEK293/H_LIV-1 cells. In short, it runs like this: (§4)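 HEK293 cells over-expressing human or cyno LIV-1 incubated with chimeric Abs (from 100 nM, 5-fold dilutions, 8 points) for 60 min at 4 °C, then fluorescent secondary antibody 30 min at 4 °C; washes in 2% FBS/PBS. Binding read by flow cytometry; EC50 from the titration curve.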
This is another data set of the same source.

For experiment [15], the target named is T3, cynomolgus LIV-1. The experiment is described as follows: FACS, HEK293/Cyno_LIV-1 cells. Put shortly:
as §4
The source holds these as a separate data set.

Where two headings read alike, the source gives them in different places.

For orientation: EC50 means the midpoint of the concentration-response curve.

Sequence of rhesus LIV-1 (H9FSJ2 entry or part of it): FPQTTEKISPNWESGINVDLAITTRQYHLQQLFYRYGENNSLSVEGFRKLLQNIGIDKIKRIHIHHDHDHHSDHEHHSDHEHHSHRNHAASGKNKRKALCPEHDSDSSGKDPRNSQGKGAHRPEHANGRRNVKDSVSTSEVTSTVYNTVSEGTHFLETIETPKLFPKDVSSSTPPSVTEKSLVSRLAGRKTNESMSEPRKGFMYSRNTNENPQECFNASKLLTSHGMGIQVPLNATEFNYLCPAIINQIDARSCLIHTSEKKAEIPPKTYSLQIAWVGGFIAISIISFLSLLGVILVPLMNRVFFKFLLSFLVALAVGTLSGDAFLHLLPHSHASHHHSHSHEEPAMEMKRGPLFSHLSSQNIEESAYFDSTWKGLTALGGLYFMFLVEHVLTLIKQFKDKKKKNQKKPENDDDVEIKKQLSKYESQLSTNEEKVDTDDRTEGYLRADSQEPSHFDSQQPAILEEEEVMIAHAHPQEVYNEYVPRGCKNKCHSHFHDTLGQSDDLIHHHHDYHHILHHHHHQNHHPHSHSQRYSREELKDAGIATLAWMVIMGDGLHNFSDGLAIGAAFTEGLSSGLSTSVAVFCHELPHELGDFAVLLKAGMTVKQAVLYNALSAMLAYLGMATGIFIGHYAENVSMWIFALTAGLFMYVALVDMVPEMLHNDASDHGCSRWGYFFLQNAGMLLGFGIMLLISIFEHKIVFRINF

B1: 5D6B10.Z7 (antibody, V domains shown)
VH: QVQLVQSGGGVVQPGRSLRLSCTVSGFSLTTYGIHWVRQSPGKGLEWLGVIWTGGTTDYNAAFISRLTISKDNSKSTVYFQMNSLQAEDTAIYYCARGPSSYWGQGTLVTVSS
VL: EIVMTQSPATLSVSPGERATLSCKASQNVDTNVVWYQQKPGQSPRALIYSASYRYSGVPARFSGSGSGTEFTLTISSLQSEDFAVYFCQQYNNYPWTFGQGTKVEIK
Consider B1, for which the “Internalization EC50” value in experiment [1] is 5700 pM. In experiment [1], the “Internalization Top (MFI)” value stood at 59100 MFI. Also, the EC50 is 220 pM in experiment [2]; 690 pM in experiment [3]; 300 pM in experiment [5]; 510 pM in experiment [6]; 190 pM in experiment [7]; 550 pM in [8]. In experiment [9], this molecule yielded an EC50 of 1060 pM. Besides, the “Top (MFI)” value in [2] came to 50700 MFI; in [3], 102000 MFI; in experiment [4], 255 MFI; in experiment [5], 41000 MFI; in [6], 34700 MFI; in experiment [7] it was 20400 MFI. Besides, the “Top (MFI)” value in experiment [8] came to 13900 MFI; in experiment [9] it was 152000 MFI; in experiment [10], 162 MFI. Also, the binding result in [4] and in [10] was “no binding (tested: 100 nM)” each time.

B2: 290F10G10 (antibody, V domains shown)
VH: IQLQQSGAELARPGASVKLSCKASGYTFTSYWIHWVKERPGQGLEWIGTIYPGDGDTRSTQKFKDKATVTAEKSSSTVYMQLSSLASEDSAVYYCTRSLIHDDYDKYYFDYWGQGTTLTVSS
VL: DIQMTQSPSSLSASLGGKVTITCKARQDINKYIAWYQHKPGKGPRLLIHYTSILQPGIPSRFSGSGSGRDYSFSISNLEPEDIATYYCLQYDYFFTFGSGTKLEIK
notes: Tested as chimeric antibody
For B2, in experiment [11], the “ADCC reporter EC50” value was 400 pM. The “ADCC reporter Top (RFU)” value in [11] stood at 177000 RFU. In addition, the “Internalization EC50” value in [12] came to 3500 pM. The “Internalization Top (RFU)” value in [12] came out at 298000 RFU. In addition, in [13], the “Cell viability(%)” value is 3.46%. In addition, in experiment [13], the “Cytotoxicity IC50” value worked out at 1330 pM. Further, the concentration giving a half-maximal response (EC50) was determined as 380 pM in [14]; 72200 pM in experiment [4]; 220 pM in [5]; 530 pM in experiment [15]; 260 pM in experiment [8]; 51100 pM in [10]. In addition, the “Top (MFI)” value in [14] was found to be 9570 MFI; in experiment [4] it was 6820 MFI; in experiment [5], 5270 MFI; in experiment [15] it was 2940 MFI; in [8] it was 1560 MFI; in experiment [10], 5550 MFI.

B3: 124H4D11.p2.z4 (antibody, V domains shown)
VH: QVQLVQSGAEVVKPGASVKVSCKASGFNIKDYYMHWVRQAPGQGLEWIGWIDPENDDTEYDPKFQGRVTMTADTSTSTVYMELSSLRSEDTAVYYCAARYYAFDYWGQGTMVTVSS
VL: DVLMTQSPLSLPVTLGQPASISCRSSQSIVHSNANTYLEWYLQRPGQSPRLLIYKVSNRFSGVPDRFSGSGSGTDFTLKISRVEAEDVGVYYCFQGSQVPPTFGQGTKLEIK
With B3, the “Internalization EC50” value in experiment [1] was found to be 5600 pM. In [1], the “Internalization Top (MFI)” value was 139000 MFI. Further, the EC50 in experiment [2] turned out to be 130 pM; in experiment [3] it was 160 pM; in [5], 70 pM; in experiment [6] it was 170 pM; in experiment [7], 130 pM; in experiment [8], 90 pM. The molecule further returned an EC50 in experiment [9] of 150 pM. Also, the “Top (MFI)” value in experiment [2] stood at 16900 MFI; in experiment [3] it was 19900 MFI; in experiment [4], 106 MFI; in experiment [5], 5420 MFI; in experiment [6], 3460 MFI; in [7], 8840 MFI. In addition, the figures for the “Top (MFI)” value in experiment [8], in [9] and in [10] were 1420 MFI, 20800 MFI and 107 MFI, respectively. In addition, the binding result in experiment [4] and in experiment [10] was “no binding (tested: 100 nM)” throughout.

These data come from US20240325555A1 (LANOVA MEDICINES, published 2024).
